Reference: the NTF2 design screens of Basanta et al. (2020)

Test: protease stability score; higher = more stable; yeast display proteolysis, trypsin and chymotrypsin;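 also: relative to predicted unfolded state with 0 unfolded-like and 1 meaning tenfold more protease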

SEEEEAEREFWEEFLRTSRTGDEELFEELIDPNVKIDINGRDLHGMEEALDTFRELRIKDIKVKHVEEQGDKIILDGRVDGIFDGKYDRVEVTFFVLKIDGRWVYHSIRLE
protease stability score: 1.13

SEEEEAKRDLDERWFRSIETGDFHTLEKLLDPHAKVRINGKDYHGREYLEWEIRDLGVKVMEQRVIIHREHRQGDKIHLQGEIIRILHVDGREEHHRFEVHYVMLKINGRWILHRMEFR
protease stability score: 0.883

SEEEEATKEMSRLVLENLKTGDFDAFHRLFDPNAKLDVGDKHFHGREQIHEWYLHVREELGVDVSRVHEKHIQVIGNKVILHGELHLRIGDKRDDTTMWIVSKKFDGRWILSSMRIS
protease stability score: 1.32

SEEEEDAEEFSRLFAELMKTGDEESLHRLADPDVRLHYGDKDHHGREQYTESWKRILDELGVDNVRIELKSVRVINGVVYVDSLVRVGDKTFRLIVIFRKINGRWRLESVKVE
protease stability score: 1.29

SEEEEDAERAERLIFEYHRTGDERLFRELVDPNVRLRVGDKEYHGREDFLRIMLELRIDRMHLHEIRVVDGRVHSRTEVDGTWNGRKFLTETESIIIKINGRWVLHSFHFH
protease stability score: 1.69

SEEEEDAHRNIELLVRYLITGDEETVSRLVDPHVKTDINGQEDHGWQIMSILMEKFKNVTLRLHDIETQGNFAVINMKMRFNGQTFDLHFFARKVNGRWFVEHIKIRQN
protease stability score: 1.62

SEEEEDARQAFEEYTESLKTGDEDTLDRLLDPDTLLIINGREIHGMEEAIRIWHVWLRHMRFRSQEMRRIRVIDGKIDIESRSIIDINGREVDLRVHYILHKVNGRWLIESVRFE
protease stability score: 2.38

SEEEEDARRAFEMWFRVLMTGDEDQVDRLMDPHVRVDINGVDLHGRTTIRRLIHEEFNRADVRSFDVEHVDYQGDWVRLEVRLILVFNGKRLELKMELISRKINGRWILESQVVE
protease stability score: 1.39

SEEEEDARRMMEILIKTLKTGDWRTIRRLVDPNVRVDFNGVDDHGRENWLKHVLHIRFKRIYIRDVRVYDGRVHIHGEINIEFDGRSDHYEVEIHIDKVDGRWVITHILIV
protease stability score: 2.26

SEEEEDIRKFLEDHHRAFATGDEKRLTELMDPNVRFDVNGVDRHGRELAVEMLHKQREEMGIDHLETIEMQDHEVYGDYIHLDVEVHIRVNGKRHILKRRILWLKINGRWTIKHEQLR
protease stability score: 0.464

SEEEEDIRRLEEMLTKNLLTGNEHKLRRLADPHVQIHINGVDIVGMEWMVQVRREMRVEHVDSRIDDVRVIGDKAEVDGTLIIVGEVDGQRTNETIRIHRVFEKVNGRWILHSETFI
protease stability score: 1.15

SEEEEDLKTMSDFVLHLFETGDEDIFNHFADPDARLHIGDKIAHGREHFKRVFEDLMHRLGVDHIEIRRRSITIIGDKVHAHVDGLTVIGDKVHHVELRFVIVKYNGRWFLKRVEVHNR
protease stability score: 1.71

SEEEEDMRKAHEFVDKLIHTGDEDETRRYADPNVLVTINGRRWVGRDDYVEVLREILHRADHVHLHEKSIRIVDGVVQINSNLFIKQGDKEIHLDIRFHIRKVNGRWDMKRMEIR
protease stability score: 1.64

SEEEEDRRIAVEEMLRYWHTGDEEDLNRLFDPNVRADFNGKDLVGREHMKEHYERLGYDKFDVRVKDVRVIGDKVEMDGHLRFDGVERDLHIFVIKVNGRWLVKHTEYR
protease stability score: 0.904

SEEEEDSLIAWKLYFEIEQTGDEKSLEHYMDPDTRYSQGEFRMHGREYTYHIIFRNRKRLGWDRVEVRLHSYEIINGRIKLDMRVHVNGVDINLLVIAFKFNGKWTIETVRIE
protease stability score: 1.36

SEEEEDTERALRLELNLLMTGDEEQFWKNMDPHVRTHFNGQERHGREYATHVLRQLGVKHVRLHDVRIIGDKIDIDMRTNVDGRIFRVHIHSEKVNGRWHIHEFFIE
protease stability score: 1.07

SEEEEDTERAMELAHHLLFTGNWEIMLKLFDPHMRLEFNGVDNHGREQVIREIRERIKLLGITNIELEPEEVRVQGDKVILHSRVDYNGKHYETEFVAEKVDGRWFIRSMRYE
protease stability score: 1.3

SEEEEDVRIALLMLEHTMRTGDEEDTREMADPNVRVEVGDKELHGRELYVEWFHRLGVKHFDIREVRFIGDKVNIRGISHVNGRNYHVVLHARKIDGRWHLTLWEMR
protease stability score: 1.41

SEEEEDVRKFVHMLMLSFITGDWKMLWEMLDPEVRLHVGDKTIIGRERFVSFMQRLLRELRIKDFHVDSIEIQGEKAIIHTTLHIVIGEKEEDRYVRYIVIKIDGRWLIHRVHIH
protease stability score: 2.74

SEEEEEADRLEEHWVKSLLTGDEEELAKNADPNTRLDIDGKIVHGMEHFIRFFSEIFKRVDHTEIRIRDSKFDGDKIHNRVEILIRFNGRTIRIDVRIIMRKVDGRWIHESMHIE
protease stability score: 1.9

SEEEEEAERAIKLWIHNVLTGDEDSLTKLLDPHVKIIDYVNGVEINNHGREWVKHWLEHLRYDIIRIHEFRSQGDKVHVDGKSEGNYNGKHVETRVMFHLHVYNGVIKSVHIIHI
protease stability score: 1.63

SEEEEEAERIYRNWLHNLHTGNEESERLMADPDVRYEINGVERVGWEEVHHFLREIRVHLRHVEIKHSDLINGRAHIEGHVDMEVRVNGVTMRIRTDTILRVVVIDGRLKSVSQEIL
protease stability score: 0.648

SEEEEEAHKFIEDWRTALETGDFDSIKELIDPNVRLHIGDKDLVGREEWVRELRRRKERYKGLRLKVHIKHVDIFDGRLIVDAEIRIDIGDKHLHYRVHIFVHKVNGRWQMKRYEEE
protease stability score: 2.57

SEEEEEAHRYQEEWKRVHRTGDEDRFRELMDPNVRIHLNINGKNIHLHGRQLAVDFLRHIHLHWRDHEIHTHDIRHFNGVTHVTGRLDGEVNGRRIDTHVEFHHHVFNGRIKSIIIIVH
protease stability score: 1.33

SEEEEEAQRFFEEWSKSWVTGDEDLTLHLLDPNVKVDIGDKVYHGRESYLELLHLILREARVHSFHMHRLEVIGEKANIDSRVDHEVGDKRDTVHMNMIVVKINGRWILKSIQIK
protease stability score: 2.58

SEEEEEARDILKMLFTALDTGNEEYFLNLIDPNVRISVGNYTIVGREQWTEHMRRVKNMQIDDISIKDIKFQGELLRIHGHLVGRFDGQHSHFHVDIIFRKVNGQWHQKEIIIK
protease stability score: 1.99

SEEEEEARKAFDDFYKSLETGDEEDLSKMIDPHVRIDINGREVHGREYAQTFWRDLIEKVKNLTLHLRDFRVIDGRLHSKMEIHQGEFHTEVNIHSKKINGRWLVQTFEFR
protease stability score: 1.84

SEEEEEARKFSEDLIRSTRTGDEKAWNDLLDPDVRIDINGKTHHGREEFLKLLQHLRERADHWRIELKHTDVYDGKVHHDIHVQISVGDKTFHHRIHLIVVKIDGKWLLKRVDVR
protease stability score: 2.16

SEEEEEAWRSTEKWTHSEKTGDFESLLRLADPNARVHVNGRELVGMETVIRRFIEHVERFKNIRIQHHTEHIEFYGDKVIIDSRLHISIGDKTITITIELVTTKFNGRWLLQEITIK
protease stability score: 0.475

SEEEEEFRERLRILYEKLLTGDWRFFLKLADPNVRSIIDGRTWIGRDEFETAMRKFDEDLGFDHTHIRHYHIQGEKVQIHFEVRQGDKRITVEINLVIVNGRYKFVELRLSIH
protease stability score: 1.4

SEEEEEFRRAVEFIERTIQTGDERILRELADPHVRLEIGDKHDHGRERVVEIWVSIFEKFKNARWEIRDVKVIDGKIYIDGSLIIDGKEHQTLIVSEKVNGRWHLKSIHIH
protease stability score: 2.17

SEEEEEHEELMRLMESTVRTGDFELFEKLADPNVRINIDGKDVHGREEFLEHWVRRWRDLGVNHLRIEHRRVYNGVIIIKVKILVNGREITLHIEARKVDGRWSVHKVEQH
protease stability score: 2.25

SEEEEEIEKMVRHMIHNLLTGNEDVIDKFVDPHVQLHINGRDIHGRENIRREIRRTLEELGVDHWIVHHIEIRRVGDKAIAINHGTIVINGRNVDTEFIFWLHKVNGRWMVHSYEIRIR
protease stability score: 1.4

SEEEEEIERMFKDWSRAVRTGDEERYDHLADPNVRIHIGDKDVHGRENFIKYLHHIRIRDVRLRDFRIYDGRVELDIEVDRHVNGRDDRTQVIMVLLKFNGQWHVESVYVK
protease stability score: 1.2

SEEEEEIERYVQHLVHNILTGDWEMIQELADPNAKIDIDGRHFHGREQFVDLMLRLIESLGIDHLRLTHVRIQGDYMELHVEVHVGDKRVELESFATKIDGRWFVKSFTKR
protease stability score: 1.97

SEEEEEIKTWTDLFINLWMTGDFHTLVHLLDPNVKAEIDGVDVHGRESVEKMLRIFIKRLGADHSDVRDSSIVNGRLDIELESDVNGRIRTIDIHVLIINGRVKSLKVDIR
protease stability score: 2.46

SEEEEEIRRTIEMLLKAWQTGDEEFWMRLFDPHYRFEINGKVYHGREVMRLERRRIDYIHRVEYRIDHIDTQGDKVIIRFTLHLDVEFDGVRTELHEHRVIIIEKVNGQWRLKSVEIE
protease stability score: 1.46

SEEEEELKKFLDIFLRALRTGDFDESLRLMDPRYRSIVGDKRHIGMENLYRWLTEMRIERVHFELDSFRIQGNKLEIDIRNDVDGQIDGKQFRIEFEVHIHMEKYNGKWVVHVLEIR
protease stability score: 0.932

SEEEEELKRALKIIIEVMLTGDEKTHHELADPHARLEIHQGNYIEHQHGREIVDKVLRDWIEKLGIDHLHLERVDKQGNKLFVHVHVKVGDKHSKLDIVASKVDGRWVLHEVRIIDE
protease stability score: 1.84

SEEEEELRIANELVKRSLDTGDEDLERELADPNTRVNYGDKILHGRHEVVRWLRRIDHIHVHWRDVRIYNGRIEMDGRLVLRVGDKSFSLETRIYMEKVDGQWVIKDHEIR
protease stability score: 0.314

SEEEEELTKWKKILEEALKTGDWRLIEELFDPHVRFIINGRHIHGMEVRLKEQEELGVNHESQELRDKHIEHQGDKVVINGHLNKIVFVNGKDLHDRYDIIFIYTKINGRWYVKRMIVN
protease stability score: 0.502

SEEEEEMEKVAKRWFWAVLTGNEDELHELLDPEAKSDVNGRDTHGREEVVRLMTEHVEKLGVDHVKVHDVKIQGNKFHFDGILIFNGVTVHSRVELDLINGKVHYMSIKLQ
protease stability score: 1.1

SEEEEEMERILKYIFRLLTTGNWKELTDNLDPDVRIIIGDKTLIGREEFQRKFKDDHDKFKNMRLEIKDSHMQGDKIIIHLQVDIGDKHFEVIIYVVKINGRWHLKTLEIR
protease stability score: 2.09

SEEEEEMKLAKRLLENISETGDERELEELLDPNVRIVIGDKHEHGRESVEHWFRRIDHIKHFEIERVTVFDGRVEMHGRMVGTINGKHKNTRITLIAVKINGRWVLQHRILE
protease stability score: 0.245

SEEEEEMKRFIEDELRAWRTGDEDLIHEQFDPHVRVIIGEFEYHGRELLHEMFNRIDHIEHIELRIHHVHLQGDKAHLEVEEREHGVFDGKRINVSREINIIIHKIDGRWVHTIIIIE
protease stability score: 0.606

SEEEEEMRFFMEVWIHDLRTGDFESLHKNADPRTRVEINGVELHGREHFTEWAERIKGAKFEVKDFKIQGDKVILHGKFSVNGVEHEMTVIFLKVNGRWLQESMTLK
protease stability score: 0.603

SEEEEEMRHHLEIFIESLRTGDEDEIANNADPNWINVVGDKENIGREHILTWYERFYEEIRIHDMKIRHVDVQGEKMRVEGELNKDVNGREIRTEHRWEFDIVNGRLRSLQVRVK
protease stability score: 0.919

SEEEEEMRRMVDDIFRMLLTGDWRDFLHLADPTVRLHIGDKQAHGRTQVFELLKLYLHEWREKTIVHESIHHINGVSIIHGSLRVRINGQEHEFKVTWNIFIYDGRLKSMEIRFH
protease stability score: 0.337

SEEEEEMRRWFEILIRAIRTGDEHVLKRLIDPDAQEDVNGKRIHGMEDMSRLLSEMRIKSWEIRRSHFVGNKIELDGHRRGHVNGRDIDDHVIIHILKIDGKWTLHRVEVS
protease stability score: 2.12

SEEEEENRKRVEFFKKVWETGDEHSMEELMDPNVRLRIVVNGRHEHYHGREEVVHILQDELRKIKNVKVNLKRIDVVDGRAHSDIHVDQGDWRMKMEVILIKVNGRWRMKELELHVI
protease stability score: 1.78
